Data taken from US12448462 (dated 2025).

T1: MUC1 (human, UniProt P15941 1039-1148)
T1 chain: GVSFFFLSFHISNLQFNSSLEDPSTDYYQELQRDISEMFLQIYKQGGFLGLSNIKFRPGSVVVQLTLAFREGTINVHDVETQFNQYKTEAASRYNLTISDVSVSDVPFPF

B1: anti-Muc1 T4E3 Fab (Fab, V domains shown)
VH: QVQLVQSGGGLVQPGGSLRLSCAASGFTFDDYAMHWVRQAPGKGLEWVSGISWNSGSIGYADSVKGRFTISRDNAKNSLYLQMNSLRAEDTALYYCAKDIGSGSYYNYYYGMDVWGQGTTATISS
VL: SSELTQDPAVSVALGQTVRITCQGDSLRSYYASWYQQKPGQAPVLVIYGKNSRPSGIPDRFSGSNSGSTASLTITGAQAEDEADYYCNSRDRYGNSLVIFGGGTKLTVL
B2: T4E3 scFv (scFv, V domains shown)
VH: B1 VH
VL: B1 VL

Molecular target: T1, MUC1
Assay: flow

Binder | EC50 [nM]
B1 | 16
B2 | 7.48
